Source: paper PMC5498468, “Exposure to the Epstein–Barr Viral Antigen Latent Membrane Protein 1 Induces Myelin-Reactive Antibodies In Vivo” (Frontiers in Immunology, 2017)
No end group written: not given here.

Target: T1, Bovine myelin basic protein (MBP) (bovine, UniProt P02687 1-169)
T1 construct: Myelin basic protein, bovine
Assay: ELISA + other: WB (methods) or immunoprecipitation (results); synthetic peptides with C-terminal Lys-biotin tested for binding of MBP and LMP1; one grade a pair for the two assays
Settings: both partners purified

T1 sequence (P02687 whole entry): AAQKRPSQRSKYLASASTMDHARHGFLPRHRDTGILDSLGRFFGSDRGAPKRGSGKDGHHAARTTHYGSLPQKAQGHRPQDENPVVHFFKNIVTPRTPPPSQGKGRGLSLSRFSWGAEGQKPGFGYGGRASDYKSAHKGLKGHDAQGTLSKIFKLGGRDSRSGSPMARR

B1: Synthesized biotinylated peptide P3, TYGGTFTDYLYNWVK (Bio) (peptide)
peptide: TYGGTFTDYLYNWVK
modifications: also: C-terminal Lys-biotin
notes: source: synthetic peptide (Shanghai Ruifu Chemical Co., Ltd.)
  binding result: binds
